This data set deals with T1, GST-OsARF24 (Oryza sativa (rice), UniProt Q2QQX6 1-841).
T1 sequence: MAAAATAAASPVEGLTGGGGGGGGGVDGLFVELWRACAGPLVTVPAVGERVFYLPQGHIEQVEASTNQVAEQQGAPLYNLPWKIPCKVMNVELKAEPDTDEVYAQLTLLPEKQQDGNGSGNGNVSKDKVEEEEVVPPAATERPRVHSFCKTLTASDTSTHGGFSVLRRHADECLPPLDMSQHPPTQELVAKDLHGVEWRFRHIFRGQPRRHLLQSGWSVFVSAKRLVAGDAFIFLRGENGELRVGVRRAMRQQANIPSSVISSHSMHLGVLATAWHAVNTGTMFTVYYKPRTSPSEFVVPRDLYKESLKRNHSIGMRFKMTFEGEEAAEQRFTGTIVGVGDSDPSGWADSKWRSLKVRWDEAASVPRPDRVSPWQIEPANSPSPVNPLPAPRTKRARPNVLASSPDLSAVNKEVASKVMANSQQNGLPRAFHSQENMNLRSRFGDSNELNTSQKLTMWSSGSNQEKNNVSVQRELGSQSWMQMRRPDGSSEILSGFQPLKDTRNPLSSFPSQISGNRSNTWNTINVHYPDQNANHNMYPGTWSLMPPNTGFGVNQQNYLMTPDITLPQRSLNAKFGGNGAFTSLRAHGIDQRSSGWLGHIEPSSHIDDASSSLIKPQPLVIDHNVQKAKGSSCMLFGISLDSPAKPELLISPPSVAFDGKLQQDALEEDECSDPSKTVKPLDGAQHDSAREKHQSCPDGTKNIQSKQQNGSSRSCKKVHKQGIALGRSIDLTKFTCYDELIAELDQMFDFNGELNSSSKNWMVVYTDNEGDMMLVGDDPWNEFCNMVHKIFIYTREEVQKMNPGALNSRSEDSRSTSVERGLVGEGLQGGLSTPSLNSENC
Nature of the data set: EMSA. On the technique in general: A gel shift assay detects complexes by their altered migration in electrophoresis.

We go through one molecule from publication PMC12048566.

B1: ARF probe (OsMAP1/OsMPK3 promoter) (dsDNA)
DNA 1: TCATCGCCTTGCTGTCTCTGCGAATCGAGA
DNA 2: TCTCGATTCGCAGAGACAGCAAGGCGATGA
Consider B1, for which the binding result is reported as “binds”.
